In the supplement of paper PMC9732359:
± gives the uncertainty stated by the source.

Assay: protein stability index of a GFP-peptide fusion (yeast GPS) (PSI 1-4); higher = more stable; sorted into four equal gates, so the index is relative within each strain
Method in brief: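 Mid-log yeast cultures in leucine-free medium, carrying a pooled plasmid library, were sorted into four equal gates by their GFP/Cherry fluorescence ratio. Each plasmid expressed Cherry along with GFP fused upstream of a tiled 17-residue yeast protein peptide. Plasmids recovered from each gate were PCR-amplified and Illumina-sequenced, with reads assigned to strains by barcodes. The protein stability index was obtained by summing each gate's read frequency weighted by its gate number.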

| Sequence | protein stability index (doa10∆) | protein stability index (pdr5∆) | protein stability index (san1∆) | protein stability index (ubr1∆) |
| --- | --- | --- | --- | --- |
| KSIRKDTVEEKKEEKLN [SIR4] | 2.96 ± 0.088 | 3.2 ± 0.12 | 3.17 ± 0.065 | 2.76 ± 0.091 |
| QWSIEIVLLDDEGKEIP [TAF14] | 1.99 ± 0.06 | 2.1 ± 0.06 | 2.71 ± 0.066 | 2.75 ± 0.068 |
| EILILINDPTNKEYTLV [SIN4] | 1.77 ± 0.072 | 2.05 ± 0.067 | 2.06 ± 0.1 | 2.23 ± 0.14 |
| VHKLRHYLVNLTSPAFG [GRR1] | 1.24 ± 0.04 | 1.38 ± 0.035 | 1.34 ± 0.077 | 1.21 ± 0.031 |
| QIRACKDLKHIIYYKFN [PRP8] | 1.72 ± 0.037 | 1.73 ± 0.037 | 1.84 ± 0.056 | 1.59 ± 0.042 |
| SQKTKTIQSDLNLSLHK [SMC2] | 2.35 ± 0.056 | 2.3 ± 0.043 | 2.19 ± 0.071 | 2.67 ± 0.03 |
| IHEIDERLAKVNEMNDQ [NNF1] | 1.37 ± 0.089 | 2.51 ± 0.14 | 1.63 ± 0.12 | 1.96 ± 0.061 |
| SFLSGVKSLLSEEKIRD [SIR4] | 3.01 ± 0.088 | 3.11 ± 0.072 | 2.92 ± 0.063 | 2.92 ± 0.11 |
| FRGARKNKGLVVSPYDY [DIB1] | 2.58 ± 0.077 | 2.54 ± 0.088 | 2.53 ± 0.09 | 2.82 ± 0.081 |
| IEKCLKASELKLALGIA [RPN2] | 2.75 ± 0.1 | 3.1 ± 0.13 | 3 ± 0.098 | 2.69 ± 0.24 |
| ATDPVAAKPDNLANFSN [SWP82] | 3.27 ± 0.077 | 3.18 ± 0.084 | 3.21 ± 0.051 | 3.26 ± 0.057 |
| HAKRKTVTSLDVVYALK [HHF1] | 3.54 ± 0.18 | 3.57 ± 0.14 | 3.19 ± 0.084 | 3.12 ± 0.12 |
| GVCNHAFHLHCINKWIK [HRT1] | 1.77 ± 0.045 | 2.49 ± 0.04 | 1.64 ± 0.068 | 2.16 ± 0.042 |
| IYKSIFNVVDVGVDQLS [YJL039C/NUP192] | 3.11 ± 0.055 | 2.92 ± 0.047 | 3.05 ± 0.041 | 3.05 ± 0.042 |
| LLWLVLIHPENFTCNRK [SWI1] | 1.9 ± 0.056 | 1.92 ± 0.063 | 2.38 ± 0.064 | 2.96 ± 0.074 |
| LKNLRKKLNFKLCQAFM [YJR042W/NUP85] | 2.19 ± 0.089 | 2.18 ± 0.093 | 1.61 ± 0.15 | 2.98 ± 0.15 |
| DHAIVTSPTMPDYYVSI [RPT2] | 2.62 ± 0.11 | 2.67 ± 0.17 | 2.58 ± 0.063 | 2.86 ± 0.12 |
| GTNKDMILKLVCQVTKF [ECM29] | 1.55 ± 0.058 | 1.26 ± 0.037 | 1.28 ± 0.13 | 1.59 ± 0.077 |
| VTLKGAKALESLASCLR [POP1] | 3.12 ± 0.073 | 2.94 ± 0.069 | 2.54 ± 0.078 | 2.74 ± 0.07 |
| AAPPSTNFEILNEMLNT [DIS3] | 2.9 ± 0.078 | 2.83 ± 0.11 | 2.95 ± 0.075 | 3.04 ± 0.061 |
| TADKIRIHAKNFEAALF [GAL11] | 2.13 ± 0.068 | 2.05 ± 0.065 | 1.51 ± 0.11 | 2.29 ± 0.055 |
| KVVGPRGTLTKNLKHID [RPL9A] | 3.27 ± 0.072 | 2.98 ± 0.065 | 2.8 ± 0.086 | 2.35 ± 0.052 |
| QTKENKRCVGVILGDAN [RPN8] | 2.89 ± 0.053 | 2.9 ± 0.05 | 2.74 ± 0.055 | 2.73 ± 0.04 |
| DDYKDLTCSLYELYINK [IRR1] | 2.74 ± 0.084 | 2.75 ± 0.12 | 3.16 ± 0.056 | 2.94 ± 0.079 |
| DRFIELISDQLLEFFEL [YML103C/NUP188] | 2.56 ± 0.067 | 2.42 ± 0.053 | 2.4 ± 0.053 | 2.74 ± 0.049 |
| KYLGLKPGSIDAISQVI [FAS1] | 3.1 ± 0.081 | 3.1 ± 0.075 | 2.91 ± 0.048 | 3.01 ± 0.061 |
| NDPSAEVRRAAMLNLIN [YCG1] | – | 3.42 ± 0.21 | 2.72 ± 0.26 | – |

| Sequence | protein stability index (doa10∆) | protein stability index (pdr5∆) | protein stability index (san1∆) | protein stability index (ubr1∆) |
| --- | --- | --- | --- | --- |
| SRTLILSILNEIKKVTQ [SIN4] | 3.05 ± 0.12 | 2.56 ± 0.15 | 2.27 ± 0.11 | 2.82 ± 0.084 |
| MVLFNIYDDWLDRISSY [PRP8] | 2.26 ± 0.054 | 2.47 ± 0.046 | 2.19 ± 0.075 | 2.26 ± 0.045 |
| DQDKVNFASGDNNTASN [RPB3] | 2.85 ± 0.16 | 2.36 ± 0.14 | – | 2.5 ± 0.18 |
| VIIRRLKTRDWIVVLPW [POP1] | 1.9 ± 0.072 | 1.46 ± 0.13 | 1.98 ± 0.15 | 1.82 ± 0.057 |
| ADNSGARNLYIIAVKGS [RPL23A] | 1.55 ± 0.049 | 1.63 ± 0.055 | 1.33 ± 0.11 | 1.53 ± 0.057 |
| SVISGNLSLYEATAASH [CSN12] | 2.28 ± 0.063 | 2.87 ± 0.068 | 2.8 ± 0.069 | 2.7 ± 0.057 |
| VGDVVGGALDNPFEDDM [BRN1] | – | 3.37 ± 0.15 | 3.58 ± 0.21 | 3.16 ± 0.11 |
| NLQTVHFGHCFNITDNG [GRR1] | 1.22 ± 0.091 | – | – | – |
| GANDLGFTASVSNQENA [MED1] | 3.06 ± 0.083 | 3.17 ± 0.11 | 2.93 ± 0.078 | 3.39 ± 0.11 |
| GHVGSVQISNIPDIGDL [PRP8] | 3.11 ± 0.067 | 2.95 ± 0.053 | 2.79 ± 0.058 | 3.03 ± 0.046 |
| EENEDNDGNNRTNNVPM [NUT1] | 3.11 ± 0.12 | 3.39 ± 0.11 | 3.31 ± 0.16 | 3.56 ± 0.089 |
| SLKNTDALLNSTTEHIN [YJL039C/NUP192] | 1.9 ± 0.15 | 2.49 ± 0.094 | 2.13 ± 0.12 | 2.42 ± 0.16 |
| YCKGKTCRKHTQHKVTQ [RPL42A] | 2.77 ± 0.094 | 3.06 ± 0.17 | 2.54 ± 0.12 | 2.91 ± 0.14 |
| NSYQPSPFFVLDEVDAA [SMC1] | 2.6 ± 0.12 | 2.57 ± 0.12 | 2.49 ± 0.12 | 2.77 ± 0.087 |
| VIVTDPRLDAQAIKEAS [RPS0B] | 3.03 ± 0.096 | 3.1 ± 0.083 | 2.88 ± 0.072 | 2.9 ± 0.075 |
| PKVKEIKTVVLVPQLGH [PRP8] | 1.93 ± 0.088 | 2.25 ± 0.08 | 1.94 ± 0.14 | 2.31 ± 0.048 |
| KKIAQRERRAALTDFER [RPL14A] | 3.09 ± 0.3 | 3.46 ± 0.19 | – | – |
| LREVVELPLLSPERFAT [RPT1] | 2.13 ± 0.084 | 2.54 ± 0.07 | 2.47 ± 0.1 | 2.33 ± 0.11 |
| DNNNGDDDDEDDDEIVM [SKP1] | 3.04 ± 0.065 | 2.93 ± 0.052 | 2.89 ± 0.04 | 2.99 ± 0.048 |
| DVPGRELKYELIAEESE [RPB2] | 3.07 ± 0.19 | 3.01 ± 0.12 | – | – |
| PQIVVPDAQNELPKFIL [DIS3] | 2.9 ± 0.049 | 3.09 ± 0.06 | 2.92 ± 0.043 | 2.98 ± 0.077 |
| KAAFLGSEVRLRDDTLP [COR1] | 2.54 ± 0.06 | 2.98 ± 0.057 | 2.93 ± 0.061 | 2.68 ± 0.05 |
| SARNYDKFKLNENDLKT [SMC1] | 2.55 ± 0.093 | 2.46 ± 0.088 | 2.35 ± 0.22 | 2.53 ± 0.063 |
| VNRSVVVSAVGEARNDI [YAR002W/NUP60] | 2.62 ± 0.044 | 2.57 ± 0.051 | 2.83 ± 0.041 | 2.2 ± 0.037 |
| FVPVPSLAGFHKVQTKL [RPS7A] | 2.53 ± 0.075 | 2.71 ± 0.081 | 2.52 ± 0.073 | 2.75 ± 0.088 |
| TDPKELYNNAHVYARDL [RPC40] | 3.51 ± 0.23 | 2.94 ± 0.11 | 2.93 ± 0.13 | – |
| PLDRLENVLAIGIAGAH [SKI6] | 1.26 ± 0.085 | 1.78 ± 0.092 | 1.54 ± 0.18 | 1.85 ± 0.12 |
